From article PMC12060179

B1: YTHDF1: EGFP-YTHDF1-Mut (protein)
parent chain: MSATSVDTQRTKGQDNKVQNGSLHQKDTVHDNDFEPYLTGQSNQSNSYPSMSDPYLSSYYPPSIGFPYSLNEAPWSTAGDPPIPYLTTYGQLSNGDHHFMHDAVFGQPGGLGNNIYQHRFNFFPENPAFSAWGTSGSQGQQTQSSAYGSSYTYPPSSLGGTVVDGQPGFHSDTLSKAPGMNSLEQGMVGLKIGDVSSSAVKTVGSVVSSVALTGVLSGNGGTNVNMPVSKPTSWAAIASKPAKPQPKMKTKSGPVMGGGLPPPPIKHNMDIGTWDNKGPVPKAPVPQQAPSPQAAPQPQQVAQPLPAQPPALAQPQYQSPQQPPQTRWVAPRNRNAAFGQSGGAGSDSNSPGNVQPNSAPSVESHPVLEKLKAAHSYNPKEFEWNLKSGRVFIIKSYSEDDIHRSIKYSIWCSTEHGNKRLDSAFRCMSSKGPVYLLFSVNGSGHFCGVAEMKSPVDYGTSAGVWSQDKWKGKFDVQWIFVKDVPNNQLRHIRLENNDNKPVTNSRDTQEVPLEKAKQVLKIISSYKHTTSIFDDFAHYEKRQEEEEVVRKERQSRNKQ
B2: YTHDF1: N-YTHDF1-Mut (protein)
parent chain: B1 parent chain

Legend:
[1] = time-lapse imaging after sorbitol release, HeLa; conditions: glycan lost; control: EGFP-WT-YTHDF1
[2] = FRAP in cells, NaCl or sorbitol stress; conditions: glycan lost; control: EGFP-WT-YTHDF1
[3] = luciferase tethering reporter after 1 h sorbitol, HEK293T; conditions: glycan lost; control: N-WT-YTHDF1

| Protein | other: stress granule disassembly rate [1] | other: stress granule dynamics (FRAP recovery) [2] | other: translation restoration after stress [3] |
| --- | --- | --- | --- |
| B1 | decreases | decreases |  |
| B2 |  |  | decreases |
